Test results reported in paper PMC8517087, “Analysis of M4 Transmembrane Segments in NMDA Receptor Function: A Negative Allosteric Modulatory Site at the GluN1 M4 is Determining the Efficiency of Neurosteroid Modulation” (Frontiers in Pharmacology, 2021).
Values belong to the substance of their own block, whether it stands above or below them.

What was measured:
[1] = biological target: GluN1/GluN2A^ΔM4 receptor (rat | mouse) (UniProt P35439)
[2] = biological target: GluN1^ΔM4/GluN2A^F637A receptor (rat | mouse) (UniProt P35439)
[3] = biological target: GluN1^ΔM4/GluN2A receptor (M4-truncated core receptor) (rat | mouse) (UniProt P35439)

rescue of agonist-induced current: Imax by TEVC in oocytes co-expressing M4^N1 with GluN1/GluN2A^ΔM4 [1]: 0.016 µA
rescued Imax current (TEVC) of GluN1^ΔM4/GluN2A^F637A co-expressed with M4^N1, normalised to the unmutated receptor [2]: 50 % decrease
Substance: M4^N1, isolated GluN1 M4 fragment (GluN 1^802–925) (from UniProt P35439 802-925) (domain or fragment)

rescue of agonist-induced current (TEVC) in oocytes co-expressing M4^N1-F817A with GluN1^ΔM4/GluN2A, compared with wt M4^N1 [3]: 90 % decrease
Substance: M4^N1-F817A (from UniProt P35439 802-925) (domain or fragment)

rescue of agonist-induced current: Imax by TEVC in oocytes co-expressing M4^N2A with GluN1/GluN2A^ΔM4 [1]: 0.24 µA
Substance: M4^N2A, isolated GluN2A M4 fragment (GluN2A^804–1464) (from UniProt P35436 804-1464) (domain or fragment)
